# Laboratory results reported in the DeepSol protein solubility set.
# Test: soluble on expression in E. coli; label from the status in PepcDB or PDB records
row,Sequence,soluble on expression in E. coli
1,KISKISTGIPRVDELLYGGFDGRDNIVVSGNNFSQKRSFIYNFIKSSANSGMKVIIINVDGSSESLLADLARRGTDLENIILLDGFSKNFQEKVPPNAEVIDDPSNVSSVLKQYMLRAQKEKDFIFVFLSATPYLMDFNDQNRKFFVQLVHWNRKNSLLSTYVLDDFVGQTTAEWFAYMMDFSLYFKNDGDYDYMRVLSLKPVRTKDW,soluble
2,RAVDNAEPAALETSTRTIPTNGRTMTPVQATYWVGRQPDYALGGIATRFYMEHDITIDGPMDEWIDALRRSWNTVVQRHGMLRATVDRDGKISIADTVTEHPLPVHNADHAAEVRERLAHRTADLGTWPVHDIELTTITATTVRIHCGFDVILIDYPSIMRVLNDWGRALAGYDLGTEDTSFSDLIAQGIAEPCPSDEAYWRERAPRLLPGPLDLAEMTYDAATTPEFHRHTRTIAAQQWKQFVDNAHAHGTNASSALLAVAAHSLRHVGPRRSFTLGATFFSPDVLEHGPVGDFTRTGVVELPDTADTFAQQASAAQHELWEAFDHASVTSADIMRWRNSDTTGQALPDYPVVFTSALGHGDSTDWPGVMTWGVSQTPQVLMDLLHWESDGDLVLAWDCVDAALPENFADNAIDIAYAVIQQLTNPAVWTDPTVVADPWLRMPGPMERIGESELIDAPLRA,not soluble
3,MIKLGWASFSNTEFAQDIFIKFANQFYKQDDAGTILFELKKTLGVNQLDEIEKNKKVIIVNQFQNSLGKFLLFNKENTKRINSLANEHISSFLKKIFRLSGFKDMLIDVQHHKKLQKCLLREIHLLVCLINSNQFSDELMQIIEWYQYLKKHSSKLFVITASSDKKPVIEPTINEYKAIFGEYLSSFHLDLKNNQSNDLFQKLLDQIKIKATSKTSLR,soluble
4,MSSSIPRVYSLGNSAMTYLLALRIAQLPSQPKVPSVVLLLNDQKKLNRFLNNDSKIIVKSSNNNKETYHRQFMASCVPPILSNGEIAPIENLIVSDPSSKFITAQLSKYNKSLRPETNILFLNPSLNLLEHLHRYRWRFDEARPNLFMGFTTPVDVGTIHQEFQLSLKVKGRIQFHIAKIDGFPRMSSTGKSASLSLRGDRQKNEKENNAFYKLFREISRLRSGIGSDLVSFDLHVHGFQDLFFTELEKLILESCTEPLLAVYDCVYKKELLKIPGAQDIIKKLISEQLSIIDRSYPSLNTNPNYSVIFDKERIFSLVMRDLEVNGHKRAKLAQSLNQLNQTNINELNGFFVSLGKYKKCNCKWNDILLTLIKGKQFITKQKALDYHYL,soluble
5,AQAALKDGTYSVDYTVLQGDSDSVSMANDYFDKPATVTVNGGKSTVSLQVNHSKWITGLWVEGNAVSVTSKNTASDTRKVSFPVSTLSSPVNAKIKVDIDDDGLNYHHEYQIQLRFDEGAVKSSGAAV,not soluble
6,MKQINDVSFLLDKRLVVLIEHQSTINENLPYRLLEYITRIYEKIVDKEKKYQKNLVKIPKPEFIVLYNGADPYPDYTELKLSDAFMDIEGLKLTGIDKIPLELIVPVYNINQGHNPEILKKCESLYGYSFFISKIREYQTQGLTLEELITPVIEYCIKNNILKDYLEAHASEVINMIFGEYDREMDIAVNRREAREEGREEGFKEGKLIIAKNLLSEGSTPEFVQRITGLTLDEIEEIGL,not soluble
7,MGSDKIHHHHHHMLDNSIPTDSCLVSGATVSTDIETLYCNHHDWLQVWLRRRLSSAVDASDLAHDTFVRVLVSGRMPNAEQSRAFLTQIAKGLAVDLYRRRAIEEAYLAALAQLPENLAPSAEERVLALQVLLLLDTALGSLPSRVREVFLLSRLDGLTYSDIAQRRGISVATVRKYMLRAAQACHCVLNSPTGTAP,not soluble
8,MNTRIKPVRSFLFVPGNKESMLDKAAQAGADALILDLEDSVPSPEKTAARELVAKKIPELIAQNQRIWVRINRTAHIYDLDDILAVAPAGIEGIYISKPGGPEDVYMASCMIAEAEARANLPLGSIGLIPLLETARSMQLCYDIAQMPRVAGIVGATARNADMGRALKFVWTAEGRETEYLKSRVVMAARAAGKQAIGGLWQQIKDLDGLAKSSAFDRQLGMSGELVLHPMQVETINRTYTPTAEDVAYYQGMIEALDAAQAQGRASVMYEGEHIDIAHVKTAHEVIALAQSFGN,not soluble
9,MTLTQEKRSYMEKLSDENGIISALAFDQRGALKRLMAQYQTQEPTIAQMEELKVLVAEELTPYASSMLLDPEYGLPAAKHLDKNAGLLLAYEKTGYDTTSTKRLPDCLVEWSAKRLKKQGADAVKFLLYYDVDGDEEVNQQKQAYIERIGSECKAEDIPFFLEILAYDETITDAASVEYAKVKPHKVLDAMKVFSDERFGIDVLKVEVPVNMKYVEGFGDGPIVHTQDQAANFFKQQDQATPLPYIYLSAGVSAKLFQDTLVFAKESGANFNGVLCGRATWAGSVKDYIEKGEAAARQWLRTEGFKNIDELNKVLKATATSWKER,soluble
10,GMTRTMSFHKNCELCTTAGGEILWQDALCRVVHVENQDYPGFCRVILNRHVKEMSDLRPAERDHLMLVVFAVEEAVREVMRPDKINLASLGNMTPHVHWHVIPRFKRDRHFPNSVWGETKRESLPQALDQGSTTALKKAISVRLDQGEPVFMGM,soluble
11,MSLESENIISAADKARILAEALPYIRRFSGSVAVIKYGGNAMTEPALKEGFARDVVLLKLVGIHPVIVHGGGPQINAMLEKVGKKGEFVQGMRVTDKEAMDIVEMVLGGHVNKEIVSMINTYGGHAVGVSGRDDHFIKAKKLLIDTPEQNGVDIGQVGTVESIDTGLVKGLIERGCIPVVAPVGVGEKGEAFNINADLVAGKLAEELNAEKLLMMTNIAGVMDKTGNLLTKLTPKRIDELIADGTLYGGMLPKIASAVEAAVNGVKATHIIDGRLPNALLLEIFTDAGIGSMILGGGEDAEGHHHHHH,soluble
12,MGSDKIHHHHHHCGGSGSSEPVAPTTTPDTGFSFAATAMITNLTQEVIVTGYADLAAKGSELVLATQKLINSTSQADLVAAQDAWKAARQPWEQGESHIFGPVDSLSIDPHLDSWPLNTTDLSTQLTTAAGFDAETIKSWNDDVQGFHTMEYLLFGDGVADNTKDISELTVKEREYLIALAQVFRDHAKTLDDAWQINHKPDDANAKPYAELLSQPGVDGNTVYSSELAVIEELINGMIGIVDEVGNGKISDPFGDSITSADTSKVESQYSWNSLTDFANNIQGVRNVYQGEFTGNTDKQGVKDFVSAADANLAVRVASEIDDAIIKIQAISGSNSMPFRQAIKDANGRVRIQTAIDALTKLKTSLESDVIPLLSKWKPA,not soluble
13,MSLDNFIAGLPKLELHLHIEGSLEPELMFALGQRNGVALPWPDVASVRAAYEFDCLQSFLDLYYLGASVLITEQDFFDLTWAYLERCAADKVVHVEIFFDPQTHTARGVPFATVLGGIERALQRGEWEFGISWRLIMSFLRHLSEEDAFATLAEATPFLSRIHGIGLDSGEKGNPPSKFARVFARCRELGLPVVAHAGEEGPADYIWQAIRELEVRRIDHGVRCVDDPDLLRYLADTRLPLTVCPLSNTRLKVFDQMAHHNVLALLEQGLCVTINSDDPAYFGGYMNANFHALAHELGASMNQLCRLSLNAVEASWLSLADKARLTREGHHHHHH,soluble
14,MSLSDDVALPLEFTDAAANKVKSLIADEDNPNLKLRVYITGGGCSGFQYGFTFDDQVNEGDMTIEKQGVGLVVDPMSLQYLVGGSVDYTEGLEGSRFIVTNPNAKSTCGCGSSFSIEGGSHHHHHH,soluble
15,MLTAQTKNTQTLMPLTERVNVQADSARINQIIDGCWVAVGTNKPHAIQRDFTNLFDGKPSYRFELKTEDNTLEGYAKGETKGRAEFSYCYATSDDFKGLPADVYQKAQITKTVYHHGKGACPQGSSRDYEFSVYIPSSLDSNVSTIFAQWHGMPDRTLVQTPQGEVKKLTVDEFVELEKTTFFKKNAGHEKVVRLDKQGNPMKDKNGKPVYKAGKLNGWLVEQGGYPPLAFGFSGGLFYIKANSDRKWLTDKDDRCNANPGKTPVMKPLTSEYKASTIAYKLPFADFPKDCWITFRVHIDWTVYGKEAETIVKPGMLDVRMDYQEQGKKVSKHIVNNEKILIGRNDEDGYYFKFGIYRVGDSTVPVCYNLAGYSERLE,soluble
16,MSGARRDNRRSNGRDDSSRVAKAENDRKPGRENRGGDEKRGNSNNAARSGGGGGGNRGGAERGIAPAQQPYDNNGGHRSGGGGGRSGGGGTSFNGAAFTESQLMDEVPKKKFTGRCRLFVGNLPNEVKETELKELFSPHGDIAECYLSGKGFAFLRLDTRAHAESAKEAIDGRIIHGRQVRVRFAVHGAAIRVKELSPTVSNEMLYHAFSHFGDVERAVHIVDEKGRPTGEGIVEFERKPNCNEAMAAIRDKVFLLTASPKPLICEVLEPRDEDDGLAERMIPRTPGLSKERELGPRFPTPNSFEYVYGMKWKELYVVEQKRRAQLDEELRESRRRLESDMELAYQDYQAQMLREDLQRRQQELERLEAARRERMRGLGGPPPGMPGGVPPQAQPFNPHGGSMFGGPGGPGGPPPFGQPFQQAPQGMFNVPTGPPPLMGGGGDPRGPPGGMGGPPGHGGMGGPPGHGGQGGPPGHGGMGGPPPGQGGPGVRETWRSWRNASKSHGRSNMIEGVQRLLQIFKSDNGPPGGMPGRDYPPQQGPGGMFGSYGDGGYPPEKKQRR,not soluble
17,MANLDDELALFESELAELEQASSNSEEPASSQTHVGYDNATISAGPTTSESSAATSSAQVIQPSLLAAPPFIPIAATIAVSPFINPALGRLPTMPPVPPSIFMPPQLRAAPIMFPPRVLGIPAPATIEGAPALYETPAVNAIPQELLRTQALQSDIDKMNFKKQTDPFKKKIKEQQAKKKFVRSGGGQVWEDPSLAEWDENDFRVFCGDLGNEVSDELLAKAFRKYPSFQKAKVVRESRTNKSKGYGFVSFRDSEDYVRAMREMDGKYVGNRPIKLRKSAWKERNIDVIKQKRKQKKELGIL,soluble
18,MSLHISVMGELDSKADVDRLLESIDENCDCEIHLTFLDANVVPREIVEKIVKLKEHNKCKIFVLKAYLYSYFLSLGISCFLVKKKSILNKDFESKEKLSSQTFEPEKVEKFLWDIYDKYGFDFTEYRKDSIIRRIKISMLRYCMTNFDEFSHLALTDQDVFEQLFLDFSINTTNFFRDPEVFMFLREKVLLFLDSYSHIRIWCVGCSNGKEPYSLAIILKELGMLHKVQIYATDINPYVIEEAKNGLYSVSTINTDIANYKKSGGSKNFTDYFEVNGNYMKVKDDFKDNILFFQHSVIEKGILNEFQMILCRNVMIYFDIPLQKKVLRHFYNSLDSGGFLVMGKSEGMLLNNGYEYFADYNEKYSVYRRKEGHHHHHH,soluble
19,MAHHHHHHMKPKIPFIIEIFSSFGDNYSTNYIEKEMNLDIMNVVKNYDLDTLVEENKEANGTPHVTVDDAVDQIMDRFYDCSVFHKIILLDVSILFERVE,not soluble
20,MGSDKIHHHHHHMRLFRKEPKAEQLKVIIIGAGEVGYHIAHRLTRENKQVVVVDQQPEALRRVAEALDVQTIRGSGSSPVVLHDAGAEDADIILAVTDSDEINIIACLFANIISPASTKLARIRNEEYTLYRDALAQDILNISMIINPEVEVVKNIDRLLSLPGAVDYSEFADGRIRMVGMRICSGPLVGVRLMNFRTVISDGDVIIAAIVRNDELIIPTGMDEIRADDVVYFVCTESSLESVRNVVAALEDPIRSALIVGGGNIGMRLATLFERKGYHTKLVDRDEERCAVLAEKLNSTIVLHGDGTDQDLLREENAGTMDAVVCLTSDEETNILCSLLAKNMGVRKTVARINKVAYQPLVRAIGIEHSVSPRLSAVNSILHYIRKGKVLSSVAIRGEEAEVMEALAEAQSDIVGRPIHKLSFPKGALVLALVRGTEVVIPSGDTVIEPQDRILILSTRQAVSDVEQALMVKLKAY,not soluble
